The series concerns the target His954 (UniProt position 954, […]). The experiment in a line: NMR. The note with it: 30 mM NaCl plus 20 mM sodium phosphate, Folded post-fusion six-helix bundle (6HB) state, 0.15 mM protein, no lipid.

As a reminder, the pKa is the pH at which an ionisable group is half protonated. Turning to “Spike glycoprotein S2 HR1-HR2 fusion core ('Core') Q954H variant (Severe acute respiratory syndrome coronavirus 2 (SARS-CoV-2); Q954H)”, the pKa stood at 6.40.

The record behind these values is publication PMC10206564.
